Measured values taken from publication doi:10.1101/2022.11.23.517371.

Target: nicotinate-nucleotide pyrophosphorylase (NMnPP) (Saccharomyces cerevisiae S288c) (UniProt P43619)
Test: negative-stain TEM

Substance: nicotinate-nucleotide pyrophosphorylase (NMnPP) (from UniProt P43619 1-295) (enzyme)
- stoichiometry N: 6
